Results on two molecules are retold here after publication PMC4118585.

The assay concerns the target HCMV glycoprotein M (gM, UL100) in HCMV-infected cells (HCMV strain AD169). The assay is described as follows: FRET or BRET. Background: Bioluminescence resonance energy transfer reports proximity on the nanometre scale.

Chain of HCMV glycoprotein M (gM, UL100) in HCMV-infected cells (HCMV strain AD169) (P16733 whole entry): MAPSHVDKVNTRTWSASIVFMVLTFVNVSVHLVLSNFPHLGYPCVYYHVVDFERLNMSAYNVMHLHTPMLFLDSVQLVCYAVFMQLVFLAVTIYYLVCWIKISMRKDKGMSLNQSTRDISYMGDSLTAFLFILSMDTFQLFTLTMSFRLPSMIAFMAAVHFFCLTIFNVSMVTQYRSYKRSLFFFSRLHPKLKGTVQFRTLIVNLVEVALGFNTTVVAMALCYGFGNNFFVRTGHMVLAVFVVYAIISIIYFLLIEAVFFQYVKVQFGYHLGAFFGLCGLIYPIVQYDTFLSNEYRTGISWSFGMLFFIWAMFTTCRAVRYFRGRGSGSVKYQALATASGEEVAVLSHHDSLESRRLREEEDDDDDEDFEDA

B1: myc-tagged FIP4 (FIP4-myc), full length (natural protein)
chain: MAGGAGWSGAPAALLRSVRRLREVFEVCGRDPDGFLRVERVAALGLRFGQGEEVEKLVKYLDPNDLGRINFKDFCRGVFAMKGCEELLKDVLSVESAGTLPCAPEIPDCVEQGSEVTGPTFADGELIPREPGFFPEDEEEAMTLAPPEGPQELYTDSPMESTQSLEGSVGSPAEKDGGLGGLFLPEDKSLVHTPSMTTSDLSTHSTTSLISNEEQFEDYGEGDDVDCAPSSPCPDDETRTNVYSDLGSSVSSSAGQTPRKMRHVYNSELLDVYCSQCCKKINLLNDLEARLKNLKANSPNRKISSTAFGRQLMHSSNFSSSNGSTEDLFRDSIDSCDNDITEKVSFLEKKVTELENDSLTNGDLKSKLKQENTQLVHRVHELEEMVKDQETTAEQALEEEARRHREAYGKLEREKATEVELLNARVQQLEEENTELRTTVTRLKSQTEKLDEERQRMSDRLEDTSLRLKDEMDLYKRMMDKLRQNRLEFQKEREATQELIEDLRKELEHLQMYKLDCERPGRGRSASSGLGEFNARAREVELEHEVKRLKQENYKLRDQNDDLNGQILSLSLYEAKNLFAAQTKAQSLAAEIDTASRDELMEALKEQEEINFRLRQYMDKIILAILDHNPSILEIKH
B1 showed an average FRET efficiency of 27%.

B2: myc-tagged FIP3 (FIP3-myc) (natural protein)
chain: MASAPPASPPGSEPPGPDPEPGGPDGPGAAQLAPGPAELRLGAPVGGPDPQSPGLDEPAPGAAADGGARWSAGPAPGLEGGPRDPGPSAPPPRSGPRGQLASPDAPGPGPRSEAPLPELDPLFSWTEEPEECGPASCPESAPFRLQGSSSSHRARGEVDVFSPFPAPTAGELALEQGPGSPPQPSDLSQTHPLPSEPVGSQEDGPRLRAVFDALDGDGDGFVRIEDFIQFATVYGAEQVKDLTKYLDPSGLGVISFEDFYQGITAIRNGDPDGQCYGGVASAQDEEPLACPDEFDDFVTYEANEVTDSAYMGSESTYSECETFTDEDTSTLVHPELQPEGDADSAGGSAVPSECLDAMEEPDHGALLLLPGRPHPHGQSVITVIGGEEHFEDYGEGSEAELSPETLCNGQLGCSDPAFLTPSPTKRLSSKKVARYLHQSGALTMEALEDPSPELMEGPEEDIADKVVFLERRVLELEKDTAATGEQHSRLRQENLQLVHRANALEEQLKEQELRACEMVLEETRRQKELLCKMEREKSIEIENLQTRLQQLDEENSELRSCTPCLKANIERLEEEKQKLLDEIESLTLRLSEEQENKRRMGDRLSHERHQFQRDKEATQELIEDLRKQLEHLQLLKLEAEQRRGRSSSMGLQEYHSRARESELEQEVRRLKQDNRNLKEQNEELNGQIITLSIQGAKSLFSTAFSESLAAEISSVSRDELMEAIQKQEEINFRLQDYIDRIIVAIMETNPSILEVK
For B2, the average FRET efficiency was below 2%.
